Measured values reported in patent US20220160843A1 (priority 2019, published 2022).

B1: GN147: Modified GN3, amino acid substitutions (R101D, R117H), SEQ ID NO: 5 (protein)
chain: MRTSQRGLSLIKSFEGLRLQAYQDSVGVWTIGYGTTRGVKAGMKISKDQAERMLLNDVQRFEPEVERLIKVPLNQDQWDALMSFTYNLGAANLESSTLRDLLNAGNYAAAAEQFPHWNKAGGQVLAGLTRRRAAERELFLGAA
B2: GN150: Native lysin, WP_034684053.1/VanY, SEQ ID NO: 19 (protein, listed as Acinetobacter sp.)
chain: MSFKLGKRSLSNLEGVHPDLIKVVKRAIELTECDFTVTEGLRSKERQAQLLKEKKTTTSNSRHLTGHAVDLAAWVNNTVSWDWKYYYQIADAMKKAASELNVSIDWGGDWKKFKDGPHFELTWSKYPIKGAS
B3: GN37: Native lysin, WP_014102102.1/VanY, SEQ ID NO: 12; first disclosed in WO/2017/049233 (protein, listed as Micavibrio aeruginosavorus)
chain: MTYTLSKRSLDNLKGVHPDLVAVVHRAIQLTPVDFAVIEGLRSVSRQKELVAAGASKTMNSRHLTGHAVDLAAYVNGIRWDWPLYDAIAVAVKAAAKELGVAIVWGGDWTTFKDGPHFELDRSKYR
B4: GN156: Modified GN4, addition of N-terminal peptide GPRRPRRPGRRAPV, SEQ ID NO: 6 (protein)
chain: GPRRPRRPGRRAPVMRTSQRGIDLIKSFEGLRLSAYQDSVGVWTIGYGTTRGVTRYMTITVEQAERMLSNDIQRFEPELDRLAKVPLNQNQWDALMSFVYNLGAANLASSTLLKLLNKGDYQGAADQFPRWVNAGGKRLDGLVKRRAAERALFLEPLS
B5: GN4: Native lysin, YP_002284361.1/Lysozyme, SEQ ID NO: 3; first disclosed in WO/2017/049233 (protein)
chain: MRTSQRGIDLIKSFEGLRLSAYQDSVGVWTIGYGTTRGVTRYMTITVEQAERMLSNDIQRFEPELDRLAKVPLNQNQWDALMSFVYNLGAANLASSTLLKLLNKGDYQGAADQFPRWVNAGGKRLDGLVKRRAAERALFLEPLS
modifications: Pseudomonas phage PAJU2
B6: GN92: Modified GN4, N-terminal peptide KFFKFFKFFK with linker, SEQ ID NO: 7 (protein)
chain: KFFKFFKFFKAGAGAGAGAGAGAGAGASMRTSQRGIDLIKSFEGLRLSAYQDSVGVWTIGYGTTRGVTRYMTITVEQAERMLSNDIQRFEPELDRLAKVPLNQNQWDALMSFVYNLGAANLASSTLLKLLNKGDYQGAADQFPRWVNAGGKRLDGLVKRRAAERALFLEPLS

Tests used:
P. aeruginosa [1] = assay: Minimal inhibitory concentration (MIC), modified CLSI broth microdilution in CAA or CAA/HuS; assay type: cell-based, Pseudomonas aeruginosa; details: for MIC (μg/mL) in CAA: CAA media; for MIC (μg/mL in CAA/HuS) / MIC value in CAA/HuS: CAA supplemented with 25% human serum
P. aeruginosa [2] = assay: Time-kill assay of GN lysin activity; assay type: cell-based, Pseudomonas aeruginosa; details: for Log10 CFU/mL T = 3 hr / Log10 CFU/mL T = l hr: lysin 10 μg/mL, T = 0 7.8; for Log10 CFU/mL T = 3 hr: buffer control 7.2, limit of detection 3.7; for Log10 CFU/mL T = l hr: buffer control 7.7
Procedure: All treatments were incubated at 37° C. with aeration.

[3] = test system: P. aeruginosa strain ATCC 17647; assay: Minimal Biofilm Eradicating Concentration (MBEC), Calgary Biofilm Device; assay type: cell-based, Pseudomonas aeruginosa; details: 24 h biofilm, 24 h treatment; minimum concentration removing >95% of biofilm biomass (crystal violet)
From the text: All samples were examined in triplicate.

[4] = test system: carbapenem-resistant clinical strain, WC-452; assay: Checkerboard assay to examine synergy with antibiotics in CAA/HuS; assay type: cell-based, P. aeruginosa; details: for FICI, Amikacin: lysin + amikacin; for FICI, Azithromycin: lysin + azithromycin; for FICI, Aztreonam: lysin + aztreonam; for FICI, Ciprofloxacin: lysin + ciprofloxacin; for FICI, Colistin: lysin + colistin; for FICI, Fosfomycin: lysin + fosfomycin; for FICI, Gentamicin: lysin + gentamicin; for FICI, Imipenem: lysin + imipenem; for FICI, Meropenem: lysin + meropenem; for FICI, Piperacillin: lysin + piperacillin; for FICI, Rifampicin: lysin + rifampicin; for FICI, Tobramycin: lysin + tobramycin
Procedure: Fractional inhibitor concentration index (FICI) values were determined for all combinations; values of <0.5 indicate synergy.
The checkerboard assays is based on a modification of the CLSI method for MIC determination by broth microdilution (26, 29). Checkerboards were constructed by first preparing columns of a 96-well polypropylene microtiter plate, in which each well had the same amount of antibiotic diluted 2-fold along the horizontal axis. […] Summation fractional inhibitory concentrations (ΣFICs) were calculated for each drug and the minimum ΣFIC value (ΣFICmin) was used to determine synergy. ΣFICs were calculated as follows: ΣFIC=FIC A+FIC B, where FIC A is the MIC of each antibiotic in the combination/MIC of each antibiotic alone, and FIC B is the MIC of each GN lysin in the combination/MIC of each GN lysin alone. The combination is considered synergistic when the ΣFIC is ≤0.5, strongly additive when the ΣFIC is >0.5 to <1, additive with the ΣFIC is 1−<2, and antagonistic when the ΣFIC is ≥2.

[5] = CAA/HuS, ‡ indicates bactericidal activity
[6] = HEPES buffer, ‡ indicates bactericidal activity

| Molecule | MIC (μg/mL) in CAA (P. aeruginosa [1]) | MIC (μg/mL in CAA/HuS) (P. aeruginosa [1]) | MIC value in CAA/HuS (P. aeruginosa [1]) | Log10 CFU/mL T = 3 hr (P. aeruginosa [2]; [5]) | Log10 CFU/mL T = l hr (P. aeruginosa [2]; CAA/HuS) | Log10 CFU/mL T = 3 hr (P. aeruginosa [2]; [6]) | Log10 CFU/mL T = l hr (P. aeruginosa [2]; [6]) | MBEC [3] | synergy with antibiotics in the checkerboard assay [4] | FICI, Amikacin [4] | FICI, Azithromycin [4] | FICI, Aztreonam [4] | FICI, Ciprofloxacin [4] | FICI, Colistin [4] | FICI, Fosfomycin [4] | FICI, Gentamicin [4] | FICI, Imipenem [4] | FICI, Piperacillin [4] | FICI, Rifampicin [4] | FICI, Tobramycin [4] | further results |
| --- | --- | --- | --- | --- | --- | --- | --- | --- | --- | --- | --- | --- | --- | --- | --- | --- | --- | --- | --- | --- | --- |
| B1 | 2 µg/mL | 4 µg/mL | 4 µg/mL | 4.2‡ Log10 CFU/mL | 6.5 Log10 CFU/mL | <3.7‡ Log10 CFU/mL | <3.7‡ Log10 CFU/mL | 0.25 µg/mL | synergize with a range of antibiotics | 0.375 | 0.250 | 0.188 | 0.281 | 0.188 | 0.250 | 0.375 | 0.375 | 0.188 | 0.281 | 0.5 | FICI, Meropenem [4]: 0.375 |
| B2 | 2 µg/mL | 32 µg/mL | – | <3.7‡ Log10 CFU/mL | 6.0 Log10 CFU/mL | <3.7‡ Log10 CFU/mL | 5.7 Log10 CFU/mL | 0.25 µg/mL | synergize with a range of antibiotics | 0.313 | 0.125 | 0.188 | 0.250 | 0.094 | 0.375 | 0.375 | 0.375 | 0.500 | 0.094 | 0.500 | bactericidal activity in the time-kill assay format (P. aeruginosa [2]; 3-hour timepoint, 10 μg/mL, in either CAA/HuS or HEPES buffer): bactericidal activity |
| B3 | >128 µg/mL | 32 µg/mL | 32 µg/mL | <3.7‡ Log10 CFU/mL | 6.2 Log10 CFU/mL | <3.7‡ Log10 CFU/mL | 6.3 Log10 CFU/mL | 0.25 µg/mL | synergize with a range of antibiotics | 0.125 | 0.188 | 0.531 | 0.281 | 0.156 | 0.313 | 0.313 | 0.313 | 0.375 | 0.281 | 0.156 | FICI, Meropenem [4]: 0.500 |
| B4 | 32 µg/mL | 2 µg/mL | – | <3.7‡ Log10 CFU/mL | 5.7 Log10 CFU/mL | <3.7‡ Log10 CFU/mL | 5.7 Log10 CFU/mL | 0.5 µg/mL | – | – | – | – | – | – | – | – | – | – | – | – | – |
| B5 | 64 µg/mL | 16 µg/mL | 16 µg/mL | <3.7‡ Log10 CFU/mL | 6.0 Log10 CFU/mL | <3.7‡ Log10 CFU/mL | 5.7 Log10 CFU/mL | 1 µg/mL | synergize with a range of antibiotics | 0.531 | 0.094 | 0.156 | 0.250 | 0.156 | 0.250 | 0.375 | 0.125 | 0.313 | 0.156 | 0.375 | – |
| B6 | 32 µg/mL | 4 µg/mL | 4 µg/mL | <3.7‡ Log10 CFU/mL | 6.2 Log10 CFU/mL | <3.7‡ Log10 CFU/mL | 5.7 Log10 CFU/mL | 0.5 µg/mL | synergize with a range of antibiotics | 0.375 | 0.063 | 0.188 | 0.281 | 0.094 | 0.500 | 0.375 | 0.125 | 0.500 | 0.094 | 0.500 | FICI, Meropenem [4]: 0.375 |
